Here are results for three molecules from patent publication US20190382482A1 (GlaxoSmithKline, published 2019).

As usually defined, the EC50 (read off the curve) is the midpoint of the concentration-response curve. Low values mean a more potent agent, high ones a less potent agent.

For one assay, the target named is T1, Human LAG-3 on cells (human, UniProt P18627 23-525).
T1 construct: whole, on cells; also called human LAG-3 expressing EL4 cells
T1 sequence (looked up): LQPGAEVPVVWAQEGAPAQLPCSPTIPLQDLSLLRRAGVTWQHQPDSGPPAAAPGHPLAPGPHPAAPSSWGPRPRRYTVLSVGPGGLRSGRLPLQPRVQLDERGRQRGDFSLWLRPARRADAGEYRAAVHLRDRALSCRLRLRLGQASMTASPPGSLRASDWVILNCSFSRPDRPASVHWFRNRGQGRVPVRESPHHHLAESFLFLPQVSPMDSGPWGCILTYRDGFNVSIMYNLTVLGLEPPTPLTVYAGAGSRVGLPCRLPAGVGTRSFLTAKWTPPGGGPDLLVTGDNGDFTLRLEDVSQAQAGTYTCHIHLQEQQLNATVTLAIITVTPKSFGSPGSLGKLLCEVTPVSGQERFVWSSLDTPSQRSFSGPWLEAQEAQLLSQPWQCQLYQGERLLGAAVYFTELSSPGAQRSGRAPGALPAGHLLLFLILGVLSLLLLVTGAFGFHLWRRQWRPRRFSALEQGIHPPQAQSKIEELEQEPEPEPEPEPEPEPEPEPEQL
The assay can be described thus: Flow cytometry (MFI dose response) on human LAG-3 expressing EL4 cells. As for the experimental part:
Human LAG-3 expressing EL4 cells were incubated with either IMP731, H5L7WT or H5L7BW Alexa647-conjugated antibodies at varying concentrations of up to 50 μg/ml for 30 minutes at room temperature. Cells were washed with FACS buffer (PBS+0.5% BSA) to remove unbound antibody.
EL4 cells and CD3⁺ T cells were analysed by FACS using a Beckman Coulter FC 500 flow cytometer. FACS raw data were analysed using CXP Analysis software (Beckman Coulter). The data was initially plotted on a forward-scatter versus side-scatter plot and the population of cells of interest were gated. This gated population was then plotted as a histogram displaying fluorescence intensity and the mean fluorescence intensity (MFI) calculated. MFI values were then plotted in GraphPad Prism 5 software to generate dose response curves.
Background: In flow cytometry, cells or beads pass a laser one at a time.

Assay [1] addresses T2, Recombinant human LAG-3 ECD-His6 (human, UniProt P18627 23-433).
T2 construct: Entry holds the ECD with the C-terminal His6; also called LAG-3-His; recombinant human LAG-3-His
T2 sequence: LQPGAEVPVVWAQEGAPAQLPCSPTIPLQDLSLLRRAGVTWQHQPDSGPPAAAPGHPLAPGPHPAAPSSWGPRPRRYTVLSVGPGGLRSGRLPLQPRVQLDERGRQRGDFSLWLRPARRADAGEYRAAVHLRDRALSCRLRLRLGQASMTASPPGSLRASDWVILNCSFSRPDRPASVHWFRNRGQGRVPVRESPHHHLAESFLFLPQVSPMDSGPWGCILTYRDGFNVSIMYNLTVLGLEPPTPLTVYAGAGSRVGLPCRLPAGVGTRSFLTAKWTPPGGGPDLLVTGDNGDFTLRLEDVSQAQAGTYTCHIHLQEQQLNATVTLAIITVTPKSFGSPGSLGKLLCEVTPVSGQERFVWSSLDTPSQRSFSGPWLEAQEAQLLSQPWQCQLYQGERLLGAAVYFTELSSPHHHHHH
The assay can be described thus: SPR Biacore T100, Anova comparison of KD, 3 runs. As for the experimental part: (§1) Wild type fucosylated and afucosylated antibodies were compared for their ability to bind to recombinant human LAG-3 ECD with a C-terminal His6 (SEQ ID NO:51) using the Biacore™ T100 (GE Healthcare™). Protein A was immobilised on a CM5 chip by primary amine coupling. This surface was then used to capture the humanised antibodies. Recombinant human LAG-3 ECD-His6 was then passed over the captured antibodies at 32, 8, 2, 0.5 and 0.125 nM and regeneration was carried out using 50 mM NaOH. The binding curves were double referenced with buffer injection (i.e. 0 nM) and the data was fitted to the T100 analysis software using the 1:1 model. The run was carried out at 25° C., using HBS-EP as the running buffer.
(§2) In order to investigate the statistical significance of this kinetic data, this experiment was repeated 3 times with the same batch of the four antibodies and the chimeric control. KD, ka and kd parameters were each log (base 10) transformed prior to separate statistical analyses. For each parameter, a mixed model analysis of variance (‘Anova’) was performed on transformed data, including terms for Run (random block effect) and Antibody.
A general note: SPR reads the build-up and loss of mass on a sensor chip optically.

Assay [2] concerns the target T2, Recombinant human LAG-3 ECD-His6. The assay can be described thus: SPR Biacore T100, Anova comparison of kd, 3 runs. As for the experimental part: as §1, §2

B1: IMP731 (antibody, human IgG1, kappa, V domains shown)
VH: QVQLKESGPGLVAPSQSLSITCTVSGFSLTAYGVNWVRQPPGKGLEWLGMIWDDGSTDYNSALKSRLSISKDNSKSQVFLKMNSLQTDDTARYYCAREGDVAFDYWGQGTTLTVSS
VL: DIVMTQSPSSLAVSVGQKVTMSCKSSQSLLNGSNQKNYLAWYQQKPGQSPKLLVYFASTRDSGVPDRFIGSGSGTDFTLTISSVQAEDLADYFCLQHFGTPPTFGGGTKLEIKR
notes: Chimeric anti-LAG-3 antibody, parent of the humanised variants; also called chimeric IMP731; chimeric control
For B1, the “EC50 (read off the curve)” value with Human LAG-3 on cells is about 0.01 µg/mL.

B2: H5L7BW (antibody, human IgG1, kappa, V domains shown)
VH: QVQLQESGPGLVKPSETLSLTCTVSGFSLTAYGVNWIRQPPGKGLEWIGMIWDDGSTDYDSALKSRVTISVDTSKNQFSLKLSSVTAADTAVYYCAREGDVAFDYWGQGTLVTVSS
VL: DIQMTQSPSSLSASVGDRVTITCKSSQSLLNPSNQKNYLAWYQQKPGKAPKLLVYFASTRDSGVPSRFSGSGSGTDFTLTISSLQPEDFATYYCLQHFGTPPTFGQGTKLEIKR
modifications: afucosylated Fc glycan (expressed in BioWa Potelligent FUT8 knock-out CHO cell line)
notes: differs only by lack of fucose; also called afucosylated H5L7BW; afucosylated H5L7
In the case of B2, the “KD ratio against H5L7” value in assay [1] worked out at 1.05. In addition, in assay [2], the “kd ratio against H5L7” value amounted to 1.12. In addition, the “EC50 (read off the curve)” value with Human LAG-3 on cells was about 0.02 µg/mL.

B3: H5L7 (antibody, human IgG1, kappa, V domains shown)
VH: QVQLQESGPGLVKPSETLSLTCTVSGFSLTAYGVNWIRQPPGKGLEWIGMIWDDGSTDYDSALKSRVTISVDTSKNQFSLKLSSVTAADTAVYYCAREGDVAFDYWGQGTLVTVSS
VL: DIQMTQSPSSLSASVGDRVTITCKSSQSLLNPSNQKNYLAWYQQKPGKAPKLLVYFASTRDSGVPSRFSGSGSGTDFTLTISSLQPEDFATYYCLQHFGTPPTFGQGTKLEIKR
notes: wild type fucosylated form; also called H5L7WT; fucosylated H5L7
As to B3, in assay [1], the “KD ratio against IMP731” value was determined as 0.0774 and the “fold decrease of KD against IMP731” value was determined as 10 fold. In assay [2], the “fold decrease of kd against IMP731” value is about 10 fold and the “kd ratio against IMP731” value turned out to be 0.155. Besides, the “EC50 (read off the curve)” value with Human LAG-3 on cells is about 0.02 µg/mL.
